Test results reported in the RNAGym collection of RNA variant scans (doi:10.7554/elife.90254).

B1: OR4K15 (parent)
chain: GUUAACGGUCAUAGGCCAUGGAAACUAGGAGCACCAUUUCGCUGCCAGUGAAGAAAUGAACAAAGAAAAUCUGGGCCAGGCAGGCAUCAAAAGAAAUAGUCUUGCGCUCAACCAGAAAGUCUGUAAUCAUUUUAAGGGUA

Variants of: B1
Assay: self-cleavage, relative activity (ratio to wild type); higher = more cleavage; in vitro, sequencing; the parent is a self-cleaving ribozyme

Variant	self-cleavage
G41U U130C	1.59
C40U A68G	1.84
U39A U72G	0.3
U39C A135G	1.82
U39C A135U	1.73
U39A A96U	1.71
U38C U49C	1.21
U38C U49A	1.45
C40U A55G	1.67
G41A A114G	0.75
U39C A55U	2.15
G41U A89G	2.13
U39C A89G	1.73
U39C A89C	1.38
U39A A116G	1.2
U39C A125G	0.66
U39C A110U	1.06
G41A A140G	1.89
G41A A56G	2.07
U39C U127C	1.18
U38C U124C	1.21
U38C A118G	1.14
C40U U72A	0.34
U39A A92G	0.92

Variant	self-cleavage
U38C U120A	1.76
C42G U43A	1.91
U38C C88A	1.74
C42U A126G	0.91
G41A A91G	1.55
G41A U132C	1.79
U39A A91G	1.56
U39C A60C	2.05
U39C A60U	1.88
U38C U97C	1.57
C42U A116G	0.68
G41A A111G	0.02
U43A A47U	1.13
U39C U43C	1.57
U39C U43A	1.92
C40U U57C	1.07
C42A A91U	0.86
C42G	1.62
C42U	1.44
C42A	0.45
U38C U122C	0.8
C40U A67G	0.82
U39A A134U	2.44
U39C A68U	2.09

Variant	self-cleavage
U39A U133C	1.76
U39C C121U	2.87
U39C A82G	0.67
U39C A90G	0.84
C40A U108A	0
C40G G74A	0.29
U43A A60G	1.52
U39A C109U	0.37
C40A A117G	2.53
U38G U108C	0.03
U39C U57C	1.64
U39C U57A	0.92
U38C U108C	0.02
C42U A60G	1.17
U39A U100A	0.55
U39A U100C	2.25
U38C U39A	0.89
G41C A52U	2.16
G41U A60G	1.9
U39A A60G	0.99
U39C A134U	1.21
U38C A111G	0.02
U39A A47U	0.73
U38C U103G	0.03

Variant	self-cleavage
U39A A66U	1.74
U39C A118G	1.71
G41A U127C	1.22
G41A U127A	2.15
U39C A91G	1.4
U38C A114G	0.75
U38C A95G	1.58
U38C G41A	1.95
U39A A98G	1.11
U43A A86U	1.7
U39A A67U	2.37
U39A A67G	1.5
U39A A78U	0.44
U39A A78C	0.23
U39A A78G	0.35
C40U U97C	0.94
C40U U97A	1.63
C40A A67G	1.7
U39G A89G	1.18
U38C G137A	0.9
C42U U127C	0.99
G41A A54G	1.09
G41C A95G	2.25
U39C G48A	1.14

Variant	self-cleavage
U38C A96U	1.66
U38C U127G	1.17
U38C U127C	0.66
U38C U87C	1.26
U38C U87A	1.6
C42U G44A	1.51
U38C U130C	1.5
U39G A47U	0.98
G41A A110G	0.12
U39C A51U	2.29
C42G A51G	1.47
U38C U72A	0.11
U38C U72G	0.27
U38C U72C	0.27
C40A G65A	1
C40A A111G	0.02
U38C C113U	0.14
U39A U108C	0.02
U43A A51G	1.64
U43A A51U	1.28
U38C C61A	0.99
G41C U87C	2.03
G41A A126G	1.48
U38C A94U	2.15

Variant	self-cleavage
U38C A94G	0.74
U38C G119U	1.69
U39C A140U	1.62
U39C A140G	1.57
U39A A52G	1.21
C40U A116G	1.57
U39A A68C	1.75
U39G A51G	1.75
U39C A47G	1.25
U39C A47C	1.63
U39C A116U	0.23
U39G A92G	1.57
G41A A51C	1.57
G41A A125G	0.77
G41A A125C	0.19
C40U U120C	1.32
U38C U132A	1.77
U39C A59U	1.98
U39C A59G	1.51
G41A U133C	1.98
G41U A117G	1.93
U39C A92U	1.99
U39C A92G	1.3
U39C C107A	0.03

Variant	self-cleavage
U38C U57G	1.4
U39C C71A	0.38
U39C U120A	2.52
U38C C45U	1.23
U39A A126G	1.59
U39A A126C	0.87
U39C A117U	1.08
U39C A117G	1.95
U39C U122C	1.84
U39C U122G	1.81
U39C U122A	1.58
C40A A66U	1.52
C40A A66G	1.69
C40A U124C	0.93
U38G A47G	1.78
G41A A92G	0.97
G41C U43C	2.19
U39C A62U	1.95
U39C A62G	0.75
U43A A68G	1.25
U39C A95G	1.53
C40U U103C	0.96
G41C A86C	0.81
